The labels stand for the following.
B1: Ac-c[Cys-Pro-His-D-Phe-His-Trp-Cys]-Pro-Pro-D-Arg-Glu-Nle-Arg-Arg-NH2 (peptide)
peptide: Ac-CPH[dF]HWCPP[dR]E[Nle]RR-NH2
modifications: disulfide 1-7
SMILES: CCCC[C@H](NC(=O)[C@H](CCC(=O)O)NC(=O)[C@@H](CCCNC(=N)N)NC(=O)[C@@H]1CCCN1C(=O)[C@@H]1CCCN1C(=O)[C@@H]1CSSC[C@H](NC(C)=O)C(=O)N2CCC[C@H]2C(=O)N[C@@H](Cc2c[nH]cn2)C(=O)N[C@H](Cc2ccccc2)C(=O)N[C@@H](Cc2c[nH]cn2)C(=O)N[C@@H](Cc2c[nH]c3ccccc23)C(=O)N1)C(=O)N[C@@H](CCCNC(=N)N)C(=O)N[C@@H](CCCNC(=N)N)C(N)=O
notes: Synthetic cyclic peptide; also called Chem. 3
B2: Ac-c[Cys-Pro-His-D-MePhe-His-Trp-Cys]-Pro-Pro-D-Arg-Glu-Nle-D-Arg-D-Arg-NH2 (peptide)
peptide: Ac-CPH[dPhe(4-Me)]HWCPP[dR]E[Nle][dR][dR]-NH2
modifications: disulfide 1-7
SMILES: CCCC[C@H](NC(=O)[C@H](CCC(=O)O)NC(=O)[C@@H](CCCNC(=N)N)NC(=O)[C@@H]1CCCN1C(=O)[C@@H]1CCCN1C(=O)[C@@H]1CSSC[C@H](NC(C)=O)C(=O)N2CCC[C@H]2C(=O)N[C@@H](Cc2c[nH]cn2)C(=O)N[C@H](Cc2ccc(C)cc2)C(=O)N[C@@H](Cc2c[nH]cn2)C(=O)N[C@@H](Cc2c[nH]c3ccccc23)C(=O)N1)C(=O)N[C@H](CCCNC(=N)N)C(=O)N[C@H](CCCNC(=N)N)C(N)=O
notes: Synthetic cyclic peptide; also called Chem. 9
B3: Ac-Arg-c[Cys-Pro-His-D-Phe-His-Trp-Cys]-Pro-Pro-D-Arg-Glu-Nle-D-Arg-D-Arg-NH2 (peptide)
peptide: Ac-RCPH[dF]HWCPP[dR]E[Nle][dR][dR]-NH2
modifications: disulfide 2-8
SMILES: CCCC[C@H](NC(=O)[C@H](CCC(=O)O)NC(=O)[C@@H](CCCNC(=N)N)NC(=O)[C@@H]1CCCN1C(=O)[C@@H]1CCCN1C(=O)[C@@H]1CSSC[C@H](NC(=O)[C@H](CCCNC(=N)N)NC(C)=O)C(=O)N2CCC[C@H]2C(=O)N[C@@H](Cc2c[nH]cn2)C(=O)N[C@H](Cc2ccccc2)C(=O)N[C@@H](Cc2c[nH]cn2)C(=O)N[C@@H](Cc2c[nH]c3ccccc23)C(=O)N1)C(=O)N[C@H](CCCNC(=N)N)C(=O)N[C@H](CCCNC(=N)N)C(N)=O
notes: Synthetic cyclic peptide; also called Chem. 5
B4: Ac-c[Cys-THAZ-His-D-F-Phe-His-Trp-Cys]-Pro-Pro-D-Arg-Glu-Nle-Arg-Arg-NH2 (peptide)
peptide: Ac-C[Thz]H[dPhe(4-F)]HWCPP[dR]E[Nle]RR-NH2
modifications: disulfide 1-7
SMILES: CCCC[C@H](NC(=O)[C@H](CCC(=O)O)NC(=O)[C@@H](CCCNC(=N)N)NC(=O)[C@@H]1CCCN1C(=O)[C@@H]1CCCN1C(=O)[C@@H]1CSSC[C@H](NC(C)=O)C(=O)N2CSC[C@H]2C(=O)N[C@@H](Cc2c[nH]cn2)C(=O)N[C@H](Cc2ccc(F)cc2)C(=O)N[C@@H](Cc2c[nH]cn2)C(=O)N[C@@H](Cc2c[nH]c3ccccc23)C(=O)N1)C(=O)N[C@@H](CCCNC(=N)N)C(=O)N[C@@H](CCCNC(=N)N)C(N)=O
notes: Synthetic cyclic peptide; also called Chem. 17
B5: Ac-c[Cys-THAZ-His-D-Phe-His-Trp-Cys]-Pro-Pro-D-Arg-Glu-Nle-D-Arg-D-Arg-NH2 (peptide)
peptide: Ac-C[Thz]H[dF]HWCPP[dR]E[Nle][dR][dR]-NH2
modifications: disulfide 1-7
SMILES: CCCC[C@H](NC(=O)[C@H](CCC(=O)O)NC(=O)[C@@H](CCCNC(=N)N)NC(=O)[C@@H]1CCCN1C(=O)[C@@H]1CCCN1C(=O)[C@@H]1CSSC[C@H](NC(C)=O)C(=O)N2CSC[C@H]2C(=O)N[C@@H](Cc2c[nH]cn2)C(=O)N[C@H](Cc2ccccc2)C(=O)N[C@@H](Cc2c[nH]cn2)C(=O)N[C@@H](Cc2c[nH]c3ccccc23)C(=O)N1)C(=O)N[C@H](CCCNC(=N)N)C(=O)N[C@H](CCCNC(=N)N)C(N)=O
notes: Synthetic cyclic peptide; also called Chem. 12
B6: Ac-c[Cys-Pro-His-D-Phe-His-Trp-Cys]-Pro-Pro-D-Arg-Glu-Nle-D-Arg-Arg-NH2 (peptide)
peptide: Ac-CPH[dF]HWCPP[dR]E[Nle][dR]R-NH2
modifications: disulfide 1-7
SMILES: CCCC[C@H](NC(=O)[C@H](CCC(=O)O)NC(=O)[C@@H](CCCNC(=N)N)NC(=O)[C@@H]1CCCN1C(=O)[C@@H]1CCCN1C(=O)[C@@H]1CSSC[C@H](NC(C)=O)C(=O)N2CCC[C@H]2C(=O)N[C@@H](Cc2c[nH]cn2)C(=O)N[C@H](Cc2ccccc2)C(=O)N[C@@H](Cc2c[nH]cn2)C(=O)N[C@@H](Cc2c[nH]c3ccccc23)C(=O)N1)C(=O)N[C@H](CCCNC(=N)N)C(=O)N[C@@H](CCCNC(=N)N)C(N)=O
notes: Synthetic cyclic peptide; also called Chem. 14
B7: Ac-c[Cys-Aib-His-D-Phe-His-Trp-Cys]-Pro-Pro-D-Arg-Glu-Nle-D-Arg-D-Arg-NH2 (peptide)
peptide: Ac-C[Aib]H[dF]HWCPP[dR]E[Nle][dR][dR]-NH2
modifications: disulfide 1-7
SMILES: CCCC[C@H](NC(=O)[C@H](CCC(=O)O)NC(=O)[C@@H](CCCNC(=N)N)NC(=O)[C@@H]1CCCN1C(=O)[C@@H]1CCCN1C(=O)[C@@H]1CSSC[C@H](NC(C)=O)C(=O)NC(C)(C)C(=O)N[C@@H](Cc2c[nH]cn2)C(=O)N[C@H](Cc2ccccc2)C(=O)N[C@@H](Cc2c[nH]cn2)C(=O)N[C@@H](Cc2c[nH]c3ccccc23)C(=O)N1)C(=O)N[C@H](CCCNC(=N)N)C(=O)N[C@H](CCCNC(=N)N)C(N)=O
notes: Synthetic cyclic peptide; also called Chem. 13
B8: Ac-c[Cys-Pro-His-D-Phe-His-Trp-Cys]-Pro-Pro-D-Arg-Glu-Nle-D-Arg-D-Arg-NH2 (peptide)
peptide: Ac-CPH[dF]HWCPP[dR]E[Nle][dR][dR]-NH2
modifications: disulfide 1-7
SMILES: CCCC[C@H](NC(=O)[C@H](CCC(=O)O)NC(=O)[C@@H](CCCNC(=N)N)NC(=O)[C@@H]1CCCN1C(=O)[C@@H]1CCCN1C(=O)[C@@H]1CSSC[C@H](NC(C)=O)C(=O)N2CCC[C@H]2C(=O)N[C@@H](Cc2c[nH]cn2)C(=O)N[C@H](Cc2ccccc2)C(=O)N[C@@H](Cc2c[nH]cn2)C(=O)N[C@@H](Cc2c[nH]c3ccccc23)C(=O)N1)C(=O)N[C@H](CCCNC(=N)N)C(=O)N[C@H](CCCNC(=N)N)C(N)=O
notes: Synthetic cyclic peptide; also called Chem. 4

Positions of bridges follow the written chain, without caps; N, C: chain ends. Non-standard residues stand in square brackets, D forms with d. dPhe(4-Me) = Cc1ccc(C[C@@H](N)C(=O)O)cc1; dPhe(4-F) = N[C@H](Cc1ccc(F)cc1)C(=O)O; Nle = CCCC[C@H](N)C(=O)O; Thz = O=C(O)[C@@H]1CSCN1; Aib = CC(C)(N)C(=O)O

One test deals with T1, human MC4 receptor (human, UniProt P32245 1-332).
T1 construct: whole, on cells; cAMP assay used whole BHK cells; also called melanocortin 4 receptor
T1 sequence (P32245 whole entry): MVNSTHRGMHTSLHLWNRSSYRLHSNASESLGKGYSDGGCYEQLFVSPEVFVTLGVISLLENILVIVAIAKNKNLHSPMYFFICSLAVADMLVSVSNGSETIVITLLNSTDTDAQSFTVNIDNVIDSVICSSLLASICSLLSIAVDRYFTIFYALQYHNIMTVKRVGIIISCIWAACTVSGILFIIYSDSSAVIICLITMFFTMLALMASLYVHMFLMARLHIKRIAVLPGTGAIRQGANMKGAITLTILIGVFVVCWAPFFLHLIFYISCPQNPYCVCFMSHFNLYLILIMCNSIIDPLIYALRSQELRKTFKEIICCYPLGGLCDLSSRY
The test is described as follows: SPA competition binding, displacement of 125I-NDP-α-MSH, BHK membranes with human MC4R. As to the method: (§1) The SPA Binding assay was performed in 96-well white opaque plates. Each well contained: 0.5 mg PVT-WGA SPA beads, MC4 receptor expressing membrane diluted to give approximately 10% specific tracer binding, 50.000 dpm ¹²⁵I-NDP-α-MSH and relevant dilutions of test compound. The final volume in each well was 200 μl. […] Plates were incubated overnight (22-24 hours) at room temperature before counting for 2 minutes per well, using a TopCount NXT scintillation counter. Displacement of radio ligand is measured as reduction in light emission from SPA beads, and IC₅₀ values are calculated by nonlinear regression analysis of sigmoidal dose-response curves in GraphPad Prism (GraphPad Software, La Jolla, Calif., USA).
In general terms: In a radioligand displacement assay an active substance lowers the binding of a labelled ligand.
Take B1: the 50% inhibitory concentration (IC50) (in general, the midpoint of a concentration-inhibition curve) was 1.03 nM.

Regarding B2, the IC50 was determined as 0.88 nM.

B3 yielded an IC50 of 0.23 nM.

B4: the half-maximal inhibitory concentration (IC50) worked out at 0.46 nM.

The molecule B5 registered an IC50 of 0.45 nM.

The molecule B6 had a half-inhibitory concentration (IC50) of 0.86 nM.

In turn, B7 gave an IC50 of 0.44 nM.

Molecule B8 registered a 50% inhibitory concentration (IC50) of 0.58 nM.

Another test has as its target T1, human MC4 receptor. Nature of the test: cell-based or functional assay.
Take B1: the “MC4R cAMP EC50” value came to 1.4 nM.

On to B2, for which the “MC4R cAMP EC50” value worked out at 2.15 nM.

In the case of B3, the “MC4R cAMP EC50” value was 0.22 nM.

Consider B4, for which the “MC4R cAMP EC50” value is 0.25 nM.

With B5, the “MC4R cAMP EC50” value was 0.24 nM.

As for B6, the “MC4R cAMP EC50” value is 1.39 nM.

With B7, the “MC4R cAMP EC50” value was determined as 0.33 nM.

Take B8: the “MC4R cAMP EC50” value was determined as 0.53 nM.

The target in the next test is T2, human MC1 receptor (human, UniProt Q01726 1-317). The test is described as follows: cell-based or functional assay.
T2 sequence (Q01726 whole entry): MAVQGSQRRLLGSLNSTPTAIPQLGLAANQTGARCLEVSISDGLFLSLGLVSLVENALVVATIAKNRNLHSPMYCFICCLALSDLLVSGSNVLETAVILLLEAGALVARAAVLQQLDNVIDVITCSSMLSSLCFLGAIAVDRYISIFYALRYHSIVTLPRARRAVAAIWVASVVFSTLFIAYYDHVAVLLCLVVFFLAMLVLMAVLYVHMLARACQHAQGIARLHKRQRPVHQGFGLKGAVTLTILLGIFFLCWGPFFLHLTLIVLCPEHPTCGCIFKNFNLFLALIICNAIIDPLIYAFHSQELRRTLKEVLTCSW
B1: the “MC1R cAMP EC50” value worked out at 778 nM.

For B2, the “MC1R cAMP EC50” value came to 601 nM.

As for B3, the “MC1R cAMP EC50” value turned out to be 172 nM.

With B4, the “MC1R cAMP EC50” value is 888 nM.

As for B5, the “MC1R cAMP EC50” value was 801 nM.

As for B6, the “MC1R cAMP EC50” value came out at 1160 nM.

In the case of B7, the “MC1R cAMP EC50” value was 456 nM.

In the case of B8, the “MC1R cAMP EC50” value was 1070 nM.

Another test deals with T2, human MC1 receptor. The test is described as follows: SPA competition binding, displacement of 125I-NDP-α-MSH, BHK membranes with human MC1R. As for the experimental part:
as §1, with “MC1” for “MC4”
Turning to B1, the IC50 came to 511 nM.

B2: the 50% inhibitory concentration (IC50) worked out at 290 nM.

B3: the IC50 stood at 39.7 nM.

B4 came in with an IC50 of 262 nM.

On to B5, for which the concentration for half-maximal inhibition (IC50) came to 235 nM.

B6 returned an IC50 of 443 nM.

Molecule B7 registered an IC50 of 214 nM.

In turn, B8 returned an IC50 of 394 nM.

The record behind these values is patent publication US20210221867A1 (Novo Nordisk, published 2021).
